B1: T7:P12 (R8-D3) (mixed)
DNA: AATACATAATCGCTCCAGGCAAT
RNA: GCCUGGAGCGC
modifications: primer nt 1-8 RNA, nt 9-11 DNA, 3' ddC
B2: T8:P9 (D11) (dsDNA)
DNA 1: AATACATAAACGCTCCAGGCAAT
DNA 2: GCCTGGAGCGC
modifications: primer 3' ddC
B3: T7:P9 (D11) (dsDNA)
DNA 1: AATACATAATCGCTCCAGGCAAT
DNA 2: GCCTGGAGCGC
modifications: primer 3' ddC
B4: T6:P9 (D11) (dsDNA)
DNA 1: AATACATAAGCGCTCCAGGCAAT
DNA 2: GCCTGGAGCGC
modifications: primer 3' ddC
B5: T6:P12 (R8-D3) (mixed)
DNA: AATACATAAGCGCTCCAGGCAAT
RNA: GCCUGGAGCGC
modifications: primer nt 1-8 RNA, nt 9-11 DNA, 3' ddC
B6: T8:P12 (R8-D3) (mixed)
DNA: AATACATAAACGCTCCAGGCAAT
RNA: GCCUGGAGCGC
modifications: primer nt 1-8 RNA, nt 9-11 DNA, 3' ddC

Biological target: DNA polymerase alpha catalytic domain (hPolα, hPolαCD) (human, UniProt P09884 335-1257)
Experiment: BLI

Chain of DNA polymerase alpha catalytic domain (hPolα, hPolαCD) (P09884 335-1257): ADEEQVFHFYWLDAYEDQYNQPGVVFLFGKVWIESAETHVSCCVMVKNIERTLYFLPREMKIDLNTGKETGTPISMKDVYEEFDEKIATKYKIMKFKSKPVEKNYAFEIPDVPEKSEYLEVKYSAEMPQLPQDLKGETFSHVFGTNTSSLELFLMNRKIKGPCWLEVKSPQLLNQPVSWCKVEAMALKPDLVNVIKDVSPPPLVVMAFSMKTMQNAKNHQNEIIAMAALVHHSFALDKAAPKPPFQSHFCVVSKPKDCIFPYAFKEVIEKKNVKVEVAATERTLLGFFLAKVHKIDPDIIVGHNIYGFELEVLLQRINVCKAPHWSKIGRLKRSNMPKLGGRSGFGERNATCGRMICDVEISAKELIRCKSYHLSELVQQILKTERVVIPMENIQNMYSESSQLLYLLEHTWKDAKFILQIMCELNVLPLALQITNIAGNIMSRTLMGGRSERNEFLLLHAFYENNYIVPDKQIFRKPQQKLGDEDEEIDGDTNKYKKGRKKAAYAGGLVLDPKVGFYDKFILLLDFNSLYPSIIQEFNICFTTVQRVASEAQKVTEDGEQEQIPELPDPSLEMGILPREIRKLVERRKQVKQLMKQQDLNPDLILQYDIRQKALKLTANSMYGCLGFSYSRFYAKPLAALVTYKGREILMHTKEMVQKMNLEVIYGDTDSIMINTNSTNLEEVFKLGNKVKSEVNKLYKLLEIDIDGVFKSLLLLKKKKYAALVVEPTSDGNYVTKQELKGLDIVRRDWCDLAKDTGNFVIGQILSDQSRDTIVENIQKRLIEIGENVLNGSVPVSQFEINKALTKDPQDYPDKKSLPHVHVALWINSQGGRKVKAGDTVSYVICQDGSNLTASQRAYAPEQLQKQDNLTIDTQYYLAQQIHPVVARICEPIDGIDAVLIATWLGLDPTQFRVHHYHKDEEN

Binder	Kd
B1	198 ± 9.2 nM
B2	1880 ± 33 nM
B3	1130 ± 94 nM
B4	146 ± 17 nM
B5	11.3 ± 0.69 nM
B6	730 ± 51 nM
